Experimental data reported in publication PMC9388160, “A multidomain connector links the outer membrane and cell wall in phylogenetically deep-branching bacteria” (Proceedings of the National Academy of Sciences of the …, 2022).

B1: SlpA (Deinococcus radiodurans outer membrane protein, UniProtKB Q9RRB6) (natural protein, D. radiodurans, UniProt Q9RRB6 23-1167, looked up)
chain: APVSAPQVPALTDVPAGHWAKDAIDRLVSRGVILGYPDGTFRGTQNLTRYEAAIIIARLLDQMRDGETPAGMTAEDMTALQNAIQELAADLAALGVRVSDLEANAVSKDDFARLEARIEEVAAAGGEQGATEALQGQIDDLTARVDEYDALRADVDDNASSIAALNDLTVLLNQDILDLQDRVSAVEAAQADFVQRSDFDALGGRVTTVETRVETVNNSLTGRIAALERNAFSVKPSLTIGYSVSRTSRNFDVDRLFPLNADGTVANNAFTSGGIDTDTGAQRRDFGDFGNASDPVVAGAAGLYGFADGVSYTVYFTDGSTATFDGLNPADYKVPTGKVIDTTKGRNGFGFNNLARYKEGSTDIGISLGFDTSGQFSQVTSGTGGSLFSTAGRLQVNQIDLNFGLVTGLPSDAYVDTNGNGKKDDGEATGRGTYLGSGGTAAILRDPAGNVYRPVFFRFKNATTQFSVGNNPVIVTLGQQQKFYFSDYVFDNNYDGRGDGFTVTVDGSNVPVIGAWKPQIKGVYGSRSGLDGTAEAGYGVYYRGVRAQITPVGTLTAGIHYAQEGRDMFGAAQNTTSTPSDVTTYGADLHGKAFGVELHSEYATSRVRPNTANAAVQTSNAFYARVATRKDNLAFDLNTPAAKFGNDTFGVSLYDLNYRKIDAGYNNVAGISEYGYGSYSRTSAQNIAYNPDTGVTAPFANLDRQAYTDANNDGTSDRNADGTVVATNTKIGQMGFGVKAAANLGPVAIGGYYDTSTGANGDNANRMTEAGGSAKVAYSIFSLRGTYNTLDSNRPQIYRDAAGTQIIGDAKVRRYAVQADVTPGLGLFVGAYYRDVNVNGVRSTTDRGLLGRGYLASSFEPGVGNNAYRTGLRCADNNFGTGTRDIDGVGGVLNPAVNLDQSRTATCFTSYGVEAGHAGDNANALVKDLFFRVGYSRVYVPTTATATTGDFSGSVTYGDARYDRKVGVANVRLAGSFSTTNTQLDSRPAGTRGAVGLIVRTDPLENVPFRPQFNGQVGYYTADNRVAAGNYNANATKYGAGVVLNDFLLPQTKIGVRYDGYMAQNRQYTPFDGDGTQGYFSDANNNRRTNLNGVYVEGAYQDLIFSYGTYTLSQKDLNGVEYGSGINNGQPARGQTFKISYKVNF
notes: SlpA, D. radiodurans, UniProtKB Q9RRB6; wild-type protein purified from the bacterium; The map is well resolved from residue 215 onwards; Native, untagged protein in DDM micelles; it models the periplasmic segment from residue 20; also called SlpA protein complex; SlpA trimer; source: purified from D. radiodurans (ATCC BAA816): lysozyme treatment, DDM extraction, HiTrap-Q, Superose 6 Increase

Tests used:
DR_0644 = DR_0644 (uncharacterized protein, UniProt Q9RWM2) (D. radiodurans); assay: cryo-EM structure; single-particle cryo-EM of SlpA purified from D. radiodurans, in 20 mM Hepes/NaOH pH 7.5, 150 mM NaCl, 0.02% DDM; 4.45 mg/mL; C3 symmetry; global resolution 3.25 Å
[1] = molecular target: the molecule itself; assay: as above

Molecule | stoichiometry N (DR_0644) | stoichiometry N [1]
DR_0644 (uncharacterized protein, UniProt Q9RWM2) (natural protein) | 3 | –
B1 | – | 3
